Key:
[1] = molecular target: HLA-B*51:01; experiment: IEDB peptide-MHC binding, purified MHC/direct/fluorescence; filed as Kd, often an IC50 or EC50 that approximates it; ≥ and ≤ were set here for values at or beyond the usual limits of such assays; conditions: source organism: Tetraodon nigroviridis
[2] = molecular target: HLA-B*57:01; experiment: IEDB peptide-MHC binding, purified MHC/competitive/radioactivity; filed as Kd, often an IC50 or EC50 that approximates it; ≥ and ≤ were set here for values at or beyond the usual limits of such assays
[3] = molecular target: HLA-B*58:01; experiment: as above
[4] = molecular target: HLA-A*03:01; experiment: IEDB peptide-MHC binding, purified MHC/direct/fluorescence; filed as Kd, often an IC50 or EC50 that approximates it; ≥ and ≤ were set here for values at or beyond the usual limits of such assays
[5] = molecular target: HLA-B*35:01; experiment: as above
[6] = molecular target: HLA-A*31:01; experiment: as above
[7] = molecular target: HLA-A*11:01; experiment: as above
[8] = molecular target: HLA-B*40:01; experiment: as above
[9] = molecular target: HLA-B*44:02; experiment: as above
[10] = molecular target: HLA-B*08:01; experiment: as above
[11] = molecular target: HLA-B*27:05; experiment: as above
[12] = molecular target: HLA-A*69:01; experiment: as above
[13] = molecular target: HLA-A*24:03; experiment: as above
[14] = molecular target: HLA-B*07:02; experiment: as above
[15] = molecular target: HLA-B*58:01; experiment: as above
[16] = molecular target: HLA-A*26:01; experiment: as above
[17] = molecular target: HLA-A*02:01; experiment: as above
[18] = molecular target: HLA-B*15:01; experiment: as above
[19] = molecular target: HLA-A*01:01; experiment: as above
[20] = molecular target: HLA-A*02:50; experiment: IEDB peptide-MHC binding, purified MHC/competitive/fluorescence; filed as Kd, often an IC50 or EC50 that approximates it; ≥ and ≤ were set here for values at or beyond the usual limits of such assays
[21] = molecular target: HLA-A*30:01; experiment: IEDB peptide-MHC binding, purified MHC/direct/fluorescence; filed as Kd, often an IC50 or EC50 that approximates it; ≥ and ≤ were set here for values at or beyond the usual limits of such assays; conditions: source organism: Giardia lamblia ATCC 50803
[22] = molecular target: HLA-B*18:01; experiment: as above; conditions: source organism: Influenza A virus (A/duck/Mongolia/47/2001(H7N1))
[23] = molecular target: HLA-B*46:01; experiment: as above; conditions: source organism: Influenza A virus (A/duck/Mongolia/47/2001(H7N1))
[24] = molecular target: HLA-A*24:02; experiment: as above; conditions: source organism: Influenza A virus (A/duck/Mongolia/47/2001(H7N1))
[25] = molecular target: HLA-B*39:01; experiment: as above; conditions: source organism: Influenza A virus (A/duck/Mongolia/47/2001(H7N1))
[26] = molecular target: HLA-A*32:01; experiment: IEDB peptide-MHC binding, purified MHC/competitive/radioactivity; filed as Kd, often an IC50 or EC50 that approximates it; ≥ and ≤ were set here for values at or beyond the usual limits of such assays; conditions: source organism: Dengue virus 4 Philippines/H241/1956
[27] = molecular target: HLA-B*15:17; experiment: IEDB peptide-MHC binding, purified MHC/direct/fluorescence; filed as Kd, often an IC50 or EC50 that approximates it; ≥ and ≤ were set here for values at or beyond the usual limits of such assays; conditions: source organism: dengue virus type 4
[28] = molecular target: HLA-B*57:01; experiment: as above; conditions: source organism: dengue virus type 4
[29] = molecular target: HLA-A*32:15; experiment: IEDB peptide-MHC binding, purified MHC/competitive/fluorescence; filed as Kd, often an IC50 or EC50 that approximates it; ≥ and ≤ were set here for values at or beyond the usual limits of such assays; conditions: source organism: dengue virus type 4
[30] = molecular target: HLA-B*15:42; experiment: as above; conditions: source organism: dengue virus type 4
[31] = molecular target: HLA-A*68:23; experiment: as above; conditions: source organism: dengue virus type 4
[32] = molecular target: HLA-A*32:07; experiment: as above; conditions: source organism: dengue virus type 4
[33] = molecular target: HLA-B*83:01; experiment: as above; conditions: source organism: dengue virus type 4
[34] = molecular target: HLA-C*14:02; experiment: as above; conditions: source organism: dengue virus type 4
[35] = molecular target: HLA-B*45:06; experiment: as above; conditions: source organism: dengue virus type 4
[36] = source organism: Dengue virus 2 Peru/IQT2913/1996
[37] = source organism: Rickettsia typhi
[38] = source organism: Brucella melitensis
[39] = source organism: Vibrio parahaemolyticus
[40] = source organism: Giardia lamblia ATCC 50803
[41] = source organism: Influenza A virus (A/duck/Mongolia/47/2001(H7N1))
[42] = source organism: Dengue virus 1 Brazil/97-11/1997
[43] = source organism: Salmonella enterica
[44] = source organism: Yersinia pestis
[45] = source organism: Camelpox virus M-96

LPAQGLIEF gave a Kd [1] of 11.3 µM.

LTSKELMMTT showed a Kd [2, 36] of 0.246 µM and a Kd [3, 36] of 0.422 µM.

APILVVSGI gave a Kd [4, 37] of no less than 20 µM, a Kd [5, 37] of 0.289 µM and a Kd [6, 37] of no less than 20 µM. It also gave a Kd [7, 37] of no less than 20 µM, a Kd [8, 37] of no less than 20 µM and a Kd [9, 37] of no less than 20 µM. It also gave a Kd [10, 37] of no less than 20 µM, a Kd [11, 37] of no less than 20 µM and a Kd [12, 37] of no less than 20 µM. It also gave a Kd [13, 37] of 14.8 µM, a Kd [14, 37] of 0.157 µM and a Kd [15, 37] of no less than 20 µM. The Kd [16, 37] was no less than 20 µM, the Kd [17, 37] was no less than 20 µM and the Kd [18, 37] was no less than 20 µM. For the same sequence, the Kd [19, 37] was no less than 20 µM.

ALFEDYPGC showed a Kd [4, 38] of no less than 20 µM, a Kd [6, 38] of no less than 20 µM and a Kd [7, 38] of no less than 20 µM. The Kd [8, 38] was no less than 20 µM, the Kd [9, 38] was no less than 20 µM and the Kd [10, 38] was no less than 20 µM. It also gave a Kd [11, 38] of no less than 20 µM, a Kd [12, 38] of no less than 20 µM and a Kd [13, 38] of no less than 20 µM. The Kd [14, 38] was no less than 20 µM, the Kd [15, 38] was no less than 20 µM and the Kd [16, 38] was no less than 20 µM. The Kd [17, 38] was 0.354 µM, the Kd [18, 38] was no less than 20 µM and the Kd [19, 38] was no less than 20 µM. It also gave a Kd [20, 38] of 0.0062 µM.

MSSAMSMMH gave a Kd [4, 39] of 0.0661 µM, a Kd [5, 39] of 0.0728 µM and a Kd [7, 39] of 0.154 µM. It also gave a Kd [8, 39] of no less than 20 µM, a Kd [9, 39] of no less than 20 µM and a Kd [10, 39] of no less than 20 µM. For the same sequence, the Kd [11, 39] was no less than 20 µM, the Kd [12, 39] was no less than 20 µM and the Kd [13, 39] was 5.11 µM. The Kd [14, 39] was no less than 20 µM, the Kd [15, 39] was 0.624 µM and the Kd [16, 39] was no less than 20 µM. The Kd [17, 39] was no less than 20 µM, the Kd [18, 39] was 2.58 µM and the Kd [19, 39] was 6.94 µM.

SVKERGPAY gave a Kd [21] of 0.0354 µM, a Kd [4, 40] of 0.61 µM and a Kd [5, 40] of 0.0394 µM. For the same sequence, the Kd [6, 40] was no less than 20 µM, the Kd [7, 40] was 0.105 µM and the Kd [8, 40] was no less than 20 µM. It also gave a Kd [9, 40] of no less than 20 µM, a Kd [10, 40] of no less than 20 µM and a Kd [11, 40] of no less than 20 µM. For the same sequence, the Kd [12, 40] was no less than 20 µM, the Kd [14, 40] was no less than 20 µM and the Kd [15, 40] was no less than 20 µM. For the same sequence, the Kd [16, 40] was 0.0246 µM, the Kd [17, 40] was no less than 20 µM and the Kd [18, 40] was 0.179 µM. The Kd [19, 40] was no less than 20 µM.

In the case of LAIPVTMTL, the Kd ([3]; source organism: Dengue virus 4 Philippines/H241/1956) is reported as 0.00134 µM.

Sequence THFQRKRRV has a Kd [4, 41] of no less than 20 µM, a Kd [6, 41] of no less than 20 µM and a Kd [7, 41] of no less than 20 µM. The Kd [8, 41] was no less than 20 µM, the Kd [9, 41] was no less than 20 µM and the Kd [10, 41] was no less than 20 µM. For the same sequence, the Kd [22] was no less than 20 µM, the Kd [23] was no less than 20 µM and the Kd [11, 41] was no less than 20 µM. For the same sequence, the Kd [14, 41] was no less than 20 µM, the Kd [15, 41] was no less than 20 µM and the Kd [24] was no less than 20 µM. The Kd ([16]; source organism: Influenza A virus(A/swine/Henan/3/2004(H9N2))) was no less than 20 µM, the Kd [17, 41] was no less than 20 µM and the Kd [18, 41] was no less than 20 µM. The Kd [25] was no less than 20 µM and the Kd [19, 41] was no less than 20 µM.

In the case of ATLFVWYFW, the Kd [2, 42] is reported as 0.115 µM and the Kd [3, 42] is reported as 0.2 µM.

ATGDYVAFV was tested, and the Kd [12, 43] was 0.0158 µM, the Kd [17, 43] was 0.067 µM and the Kd ([20]; source organism: Salmonella enterica subsp. enterica serovar Typhi) was 0.0009 µM.

WMDMWESPM showed a Kd ([17]; source organism: Escherichia coli O157:H7) of 1.01 µM and a Kd ([20]; source organism: Escherichia coli O157:H7 str. Sakai) of 0.0004 µM.

Sequence GMFIIFIPI has a Kd [12, 44] of 5.42 µM, a Kd [17, 44] of 8.84 µM and a Kd ([20]; source organism: Yersinia pestis Nepal516) of 0.395 µM.

LGSQEGAMHT showed a Kd ([3]; source organism: Dengue virus 2 Jamaica/1409/1983) of 0.548 µM.

In the case of VMCIQMKYV, the Kd [4, 45] is reported as no less than 20 µM, the Kd [6, 45] is reported as no less than 20 µM and the Kd [7, 45] is reported as no less than 20 µM. The Kd [8, 45] was no less than 20 µM, the Kd [9, 45] was no less than 20 µM and the Kd [10, 45] was no less than 20 µM. For the same sequence, the Kd [11, 45] was no less than 20 µM, the Kd [13, 45] was no less than 20 µM and the Kd [14, 45] was no less than 20 µM. The Kd [15, 45] was no less than 20 µM, the Kd [16, 45] was no less than 20 µM and the Kd [17, 45] was no less than 20 µM. The Kd [18, 45] was no less than 20 µM, the Kd [19, 45] was no less than 20 µM and the Kd ([20]; source organism: Variola virus) was 0.0181 µM.

Work on STMPLVMAW yielded a Kd [26] of 0.00169 µM, a Kd [27] of no more than 0.001 µM and a Kd [28] of 0.0052 µM. For the same sequence, the Kd [29] was 0.0227 µM, the Kd [30] was no less than 5 µM and the Kd [31] was 0.0006 µM. For the same sequence, the Kd [32] was no more than 0.001 µM, the Kd [33] was 1.14 µM and the Kd [34] was 0.0106 µM. The Kd [35] was no less than 5 µM.

Reference: the Immune Epitope Database (IEDB)
